# From patent US20220177587A1, “METHODS AND USES OF VARIANT CD80 FUSION PROTEINS AND RELATED CONSTRUCTS” (Alpine Immune Sciences, Inc., priority 2018, published 2022)
# Positions count from the first letter of the chain named. Numbers in names are those of the source. Where “and” joins values, the source holds several entries; their conditions need not be identical. Equal entries are not always repeated.
# B1: T13R/C16R/L70Q/A71D: variant CD80 IgV-Fc, IgV SEQ ID NO:155 (protein)
# chain: VIHVTKEVKEVARLSRGHNVSVEELAQTRIYWQKEKKMVLTMMSGDMNIWPEYKNRTIFDITNNLSIVIQDLRPSDEGTYECVVLKYEKDAFKREHLAEVTLSVKAD
# B2: V22L/M38V/M47I/A71D/L85M: variant CD80 IgV-Fc, IgV SEQ ID NO:158 (protein)
# chain: B1 chain with R13T, R16C, V22L, M38V, M47T, Q70L, L85M
# B3: I30V/T57I/L70P/A71D/A91T: variant CD80 IgV-Fc, IgV SEQ ID NO:159 (protein)
# chain: B1 chain with R13T, R16C, I30V, T57I, Q70P, A91T
# B4: V22I/L70M/A71D: variant CD80 IgV-Fc, IgV SEQ ID NO:160 (protein)
# chain: B1 chain with R13T, R16C, V22I, Q70M
# B5: E35D/M47I/L65P/D90N: variant CD80 IgV-Fc, IgV SEQ ID NO:167 (protein)
# chain: B1 chain with R13T, R16C, E35D, M47I, L65P, Q70L, D71A, D90N
# B6: T57I: variant CD80 IgV-Fc, IgV SEQ ID NO:156 (protein)
# chain: B1 chain with R13T, R16C, T57I, Q70L, D71A
# B7: M43I/C82R: variant CD80 IgV-Fc, IgV SEQ ID NO:157 (protein)
# chain: B1 chain with R13T, R16C, M43I, Q70L, D71A, C82R
# B8: I118T, C128R (protein)
# chain: VIHVTKEVKEVATLSCGHNVSVEELAQTRIYWQKEKKMVLTMMSGDMNIWPEYKNRTIFDITNNLSIVILALRPSDEGTYECVVLKYEKDAFKREHLAEVTLSVKADFPTPSISDFETPTSNIRRIIRSTSGGFPEPHLSWLENGEELNAINTTVSQDPETELYAVSSKLDFNMTTNHSFMCLIKYGHLRVNQTFNWNTTKQEHFPDN
# modifications: CD80 v118 ECD
# B9: S129P, T154A (protein)
# chain: B8 chain with T118I, R128C, S129P, T154A
# B10: Q27R, R29C, M42T, S129P, E160G (protein)
# chain: B8 chain with Q27R, R29C, M42T, T118I, R128C, S129P, E160G
# modifications: CD80 v119 ECD
# B11: R29D, Y31L, Q33H, K36G, M38I, T41A, M43R, M47T, E81V, L85R, K89N, A91T, F92P, K93V, R94L, I118T, T130A, N149S (protein)
# chain: VIHVTKEVKEVATLSCGHNVSVEELAQTDILWHKEGKIVLAMRSGDTNIWPEYKNRTIFDITNNLSIVILALRPSDEGTYVCVVRKYENDTPVLEHLAEVTLSVKADFPTPSISDFETPTSNIRRIICSASGGFPEPHLSWLENGEELSAINTTVSQDPETELYAVSSKLDFNMTTNHSFMCLIKYGHLRVNQTFNWNTTKQEHFPDN
# B12: R29D, Y31L, Q33H, K36G, M38I, T41A, M43R, M47T, L70Q, E81V, L85R, K89N, A91T, F92P, K93V, R94L, T130A, H188D (protein)
# chain: B11 chain with L70Q, T118I, S149N, H188D
# B13: R29D, Y31L, Q33H, K36G, M38I, T41A, M43R, M47T, E81V, L85R, K89N, A91T, F92P, K93V, R94L, I118V, T120S, I127T, C128Y, T130A, H188D (protein)
# chain: B11 chain with T118V, T120S, I127T, C128Y, S149N, H188D
# B14: R29D, Y31L, Q33H, K36G, M38I, T41A, M43R, M47T, L70Q, E81V, L85R, K89N, A91T, F92P, K93V, R94L, I118V, T120S, I127T, T130A, E143G, K169E, M174V, H188D (protein)
# chain: B11 chain with L70Q, T118V, T120S, I127T, E143G, S149N, K169E, M174V, H188D
# B15: R29D, Y31L, Q33H, K36G, M38I, T41A, M43R, M47T, N48D, F59L, E81V, L85R, K89N, A91T, F92P, K93V, R94L, I118V, T120S, I127T, T130A, H188D (protein)
# chain: B11 chain with N48D, F59L, T118V, T120S, I127T, S149N, H188D
# B16: R29D, Y31L, Q33H, K36G, M38I, T41A, M43R, M47T, L70Q, E81V, L85R, K89N, A91T, F92P, K93V, R94L, I118V, T120S, T130A, N149D, K169E, H188D (protein)
# chain: B11 chain with L70Q, T118V, T120S, S149D, K169E, H188D
# B17: R29D, Y31L, Q33H, K36G, M38I, T41A, M43R, M47T, L85R, K89N, A91T, F92P, K93V, R94L, I118V, T120S, I127T, T130A, K169E, H188D (protein)
# chain: B11 chain with V81E, T118V, T120S, I127T, S149N, K169E, H188D
# B18: H18R, R29D, Y31L, Q33H, K36G, K37E, M38I, T41A, M43R, M47T, L70Q, E81V, L85R, K89N, A91T, F92P, K93V, R94L, I118V, T120S, T130A, K169E, H188D (protein)
# chain: B11 chain with H18R, K37E, L70Q, T118V, T120S, S149N, K169E, H188D
# B19: R29D, I30V, Y31L, Q33H, K36G, M38I, T41A, M43R, M47T, E81V, L85R, K89N, A91T, F92P, K93V, R94L, I118V, T120S, I127T, T130A, H188D (protein)
# chain: B11 chain with I30V, T118V, T120S, I127T, S149N, H188D
# B20: R29D, Y31L, Q33H, K36G, M38I, T41A, M43R, M47T, E81V, L85R, K89N, A91T, F92P, K93V, R94L, I118T, T130A, N149S, K169I (protein)
# chain: B11 chain with K169I
# B21: R29D, Y31L, Q33H, K36G, M38I, T41A, M43R, M47T, L70Q, E81V, K89N, A91T, F92P, K93V, R94L, I118V, T120S, I127T, T130A (protein)
# chain: B11 chain with L70Q, R85L, T118V, T120S, I127T, S149N
# B22: H18L, R29D, Y31L, Q33H, K36G, M38I, T41A, M43R, M47T, L70Q, E81V, L85R, K89N, A91T, F92P, K93V, R94L, I118V, T120S, T130A, K169E, H188D (protein)
# chain: B11 chain with H18L, L70Q, T118V, T120S, S149N, K169E, H188D
# B23: R29D, Y31L, Q33H, K36G, M38I, T41A, M43R, M47T, E81V, L85R, K89N, A91T, F92P, K93V, R94L, F108L, I118V, T120S, T130A, K169E, H188D (protein)
# chain: B11 chain with F108L, T118V, T120S, S149N, K169E, H188D
# B24: R29D, Y31L, Q33H, K36G, M38I, T41A, M43R, M47T, E81V, L85R, K89N, A91T, F92P, K93V, R94F, T130A, N149S, K169I (protein)
# chain: B11 chain with L94F, T118I, K169I
# B25: R29D, Y31L, Q33H, K36G, M38I, T41A, M43R, M47T, L70Q, E81V, L85R, K89N, A91T, F92P, K93V, R94L, I118V, T120S, I127T, T130A, K169E (protein)
# chain: B11 chain with L70Q, T118V, T120S, I127T, S149N, K169E
# Biological target: CD28 (Homo sapiens, UniProt P10747)
# Test: Jurkat/IL2 reporter assay: blockade of CD28 costimulation (plate-bound anti-CD3/CD86-Fc)
# Assay type: cell-based
# Parameters: host or cells: Jurkat cells expressing an IL-2-luciferase reporter
# Settings: Table E5; protein diluted to 40 nM before mixing with cells; 5 hours
# Procedure: The day before the assay, the assay plate was prepared. […] The plate was incubated overnight at 4° C. to allow the antibody and CD86-Fc protein to adhere to the surface of the plate. The next day, the wells of the assay plate were washed twice with 150 μL PBS prior to the assay.
# Jurkat effector cells expressing IL-2-luciferase reporter were counted and resuspended in assay buffer to a concentration of 2×10^6 cells/mL. 60 μL of the Jurkat cell suspension were then added to the wells containing the CD80-Fc fusion molecules or controls. The cells and CD80 proteins were incubated at room temperature for 15 minutes and then 100 μL of the cell/CD80 protein mixture were transferred/well of the prepared anti-CD3/CD86-Fc assay plate.
# The assay plate was briefly spun down (10 seconds at 1200 RPM) and incubated at 37° C. for 5 hours. After the 5 hour incubation, the plate was removed and equilibrated to room temperature for 15 minutes. 100 μL of Bio-Glo (Promega) were added/well of the assay plate, which was then placed on an orbital shaker for 10 minutes. Luminescence was measured with a 1 second per well integration time using a BioTek Cytation 3 luminometer.
row,Average Relative Luminescence Units,Molecule
1,3204 Relative Luminescence Units,B1
2,1770 Relative Luminescence Units,B2
3,1731 Relative Luminescence Units,B3
4,253 Relative Luminescence Units,B4
5,2377 Relative Luminescence Units,B5
6,1463 Relative Luminescence Units,B6
7,1326 Relative Luminescence Units,B7

# Tested on: human pan T cells
# Test: Anti-CD3 coimmobilization assay, IFN-gamma
# Assay type: cell-based
# Settings: Table E34; culture supernatant, 3 days
# Outline: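 Plates coated overnight with 1 nM or 4 nM OKT3 anti-CD3 plus 1–80 nM rCD80.Fc variants, then washed. Purified human pan T cells or BC3 T cell clone (100,000/well) cultured 3 days in Ex-Vivo 15; supernatant IFN-gamma measured by ELISA.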
row,Molecule,Anti-CD3 IFN-gamma Coimmobilization Assay
1,B8,122 pg/mL
2,B9,156 pg/mL
3,B10,139 pg/mL
4,B11,89 pg/mL
5,B12,213 pg/mL
6,B13,278 pg/mL
7,B14,291 pg/mL
8,B15,230 pg/mL
9,B16,118 pg/mL
10,B17,231 pg/mL
11,B18,305 pg/mL
12,B19,127 pg/mL and 237 pg/mL
13,B20,101 pg/mL
14,B21,226 pg/mL
15,B22,157 pg/mL
16,B23,165 pg/mL
17,B24,114 pg/mL
18,B25,203 pg/mL
